{
  "source": "paper PMC5849677",
  "about": "“A novel C3d-containing oligomeric vaccine provides insight into the viability of testing human C3d-based vaccines in mice” (Immunobiology, 2018)",
  "key": {"hC3dg (aa 955-1303)-Fc": {"molecular_target": "T1, hC3dg (aa 955-1303)-Fc (human, UniProt P01024 955-1303)", "T1 construct": "human complement C3, C3dg fragment, aa 955-1303 (of pre-pro C3); also called hC3dg-Fc; hC3d with the g fragment attached", "T1 sequence (P01024 955-1303)": "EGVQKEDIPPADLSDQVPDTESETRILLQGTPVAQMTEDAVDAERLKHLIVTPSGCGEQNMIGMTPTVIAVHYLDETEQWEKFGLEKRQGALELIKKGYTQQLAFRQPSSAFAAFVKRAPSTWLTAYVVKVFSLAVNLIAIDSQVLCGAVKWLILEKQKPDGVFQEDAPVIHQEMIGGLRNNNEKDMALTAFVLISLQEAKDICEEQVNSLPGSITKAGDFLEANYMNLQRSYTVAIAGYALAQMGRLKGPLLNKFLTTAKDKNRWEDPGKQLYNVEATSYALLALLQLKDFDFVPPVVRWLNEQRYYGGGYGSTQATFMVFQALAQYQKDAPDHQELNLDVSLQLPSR", "assay": "SPR; Biacore; hC3d or C3d(g)-Fc fusions immobilised by amine coupling (94.3-96.2 RU); Fc-fusion analytes 0.195-50 nM in HBS-EP+, physiological salt, 360 s injection; steady state affinity model; apparent KD", "conditions": "both partners purified"}, "mC3d-Fc": {"molecular_target": "T2, mC3d-Fc (mouse, UniProt P01027 1002-1303)", "T2 construct": "mouse complement C3, C3d fragment", "T2 sequence (P01027 1002-1303)": "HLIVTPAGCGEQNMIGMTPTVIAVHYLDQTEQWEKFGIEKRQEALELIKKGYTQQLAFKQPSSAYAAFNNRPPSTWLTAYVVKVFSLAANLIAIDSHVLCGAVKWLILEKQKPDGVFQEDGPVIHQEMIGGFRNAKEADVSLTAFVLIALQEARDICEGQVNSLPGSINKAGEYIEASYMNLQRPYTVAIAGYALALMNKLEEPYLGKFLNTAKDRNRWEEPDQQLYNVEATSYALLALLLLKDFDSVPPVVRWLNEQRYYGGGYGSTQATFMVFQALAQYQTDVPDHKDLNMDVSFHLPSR", "assay": "SPR; Biacore; hC3d or C3d(g)-Fc fusions immobilised by amine coupling (94.3-96.2 RU); Fc-fusion analytes 0.195-50 nM in HBS-EP+, physiological salt, 360 s injection; steady state affinity model; apparent KD", "conditions": "both partners purified"}},
  "data": [
    {"binder": "hCR2 (SCR1-4)-Fc (Fc fusion, human complement receptor 2, short consensus repeats 1-4; also called hCR2-Fc; soluble hCR2; source: CHO cells, transfected, purified from tissue culture supernatant) ISCGSPPPILNGRISYYSTPIAVGTVIRYSCSGTFRLIGEKSLLCITKDKVDGTWDKPAPKCEYFNKYSSCPEPIVPGGYKIRGSTPYRHGDSVTFACKTNFSMNGNKSVWCQANNMWGPTRLPTCVSVFPLECPALPMIHNGHHTSENVGSIAPGLSVTYSCESGYLLVGEKIINCLSSGKWSAVPPTCEEARCKSLGRFPNGKVKEPPILRVGVTANFFCDEGYRLQGPPSSRCVIAGQGVAWTKMPVCEE", "values": [
      {"measurement": "Kd", "setting": "hC3dg (aa 955-1303)-Fc", "value": "3.1 to 5.1", "unit": "nM"},
      {"measurement": "Kd", "setting": "mC3d-Fc", "value": "1.47 ± 0.47", "unit": "nM"},
      {"measurement": "fold higher affinity than for hC3d-Fc", "setting": "mC3d-Fc", "value": 4, "unit": "fold"}
    ]}
  ]
}
